This series relates to T1, Biotin-GDEVDGC biotinylated peptide substrate for caspase-3, coupled to aminated CLIO.
T1 sequence: GDEVDGC

From patent US20090029392 come the findings set out here.

As for Caspase 3, the “T2 relaxation time (dispersal of the aggregate after cleavage of the peptide)” value was “When the inhibitor is not added or capase is added, the aggregate is dispersed resulting in an increase of T2”.
